This is an account of results in US9939430B2, “Platelet analysis” (Dublin City University, priority 2008, dated 2018).

In assay [1] the target is T1, platelet fibrinogen receptor αIIbβ3 (GPIIb/IIIa) (Homo sapiens, UniProt P05106+P08514).
T1 construct: incubation of whole blood with different doses of abciximab (Reopro®); endogenous in cells; host or cells: platelets in donor whole blood
Description: Platelet adhesion to fibrinogen patterned substrate, whole blood preincubated with abciximab in vitro. Type of assay: cell-based. The source says:
The single platelet counting method enables high resolution and reproducible platelet adhesion and function assays in contrast with fluorescence measurements of platelet adhesion. The drug abciximab inhibits platelet adhesion to fibrinogen. […] We compare this platelet adhesion quantification method with a classical method which consists on the measure of the fluorescence intensity originated by the platelets adhering to the surface (which have been fluorescently labelled after adhesion took place). […] Subsequently the samples were washed with buffers, fixed and labelled using platelet specific antibodies fluorescently labelled. After the samples were mounted on microscopy glass slides and imaged. (i)-(iii) show single platelet arrays formed on 6 micron fibrinogen dots array; (iv)-(vi) show platelets adhering to 12 micron fibrinogen dots array; (vii)-(ix) show platelets adhering to 24 micron fibrinogen dots array. […] It is more difficult to quantify the number of platelets adhering to the 12 or 24 micron fibrinogen dots. The effect of the drug in platelet adhesion was quantified using two methods, single platelet counting method, and fluorescence method. (B) Graphs showing the fluorescence intensity measured on samples incubated with blood samples preincubated with different doses of abxicimab (x axes units: abciximab concentration (g/mL); y axes units: fluorescence, arbitrary units). (C) Graph showing the percentage of filled (occupied by platelets) dots on 6 microns fibrinogen dots array on samples incubated with blood samples preincubated with different doses of abxicimab (x axes units: abciximab concentration (g/mL); y axes units: percentage of 6 micron fibrinogen dots occupied by platelets).
In parallel flow cytometry is used to quantify the inhibition of fibrinogen-platelet binding resulting from incubation of whole blood with different doses of abciximab (Reopro®). To perform the measurements by flow cytometry, platelets were pre-activated with thrombin-receptor-activating peptide. […]

Another assay deals with T2, GP Ilb/IIIa receptor (Homo sapiens, UniProt P05106+P08514).
T2 construct: blood samples from 10 cardiovascular patients undergoing Percutaneous Coronary Interventions (PCI); endogenous in cells; host or cells: platelets in blood of PCI patients
In words: Platelet adhesion on fibrinogen patterned substrate in PCI patients before and after Reopro administration. Type of assay: in vivo. Particulars: for platelet adhesion after administration: 0.25 mg/kg dose during PCI. As for the experimental part:
The above in-vitro results were validated in a small-scale, targeted clinical study conducted at the Clinical Research Centre in Beaumont Hospital. The same protein patterned substrate was tested with blood samples from 10 cardiovascular patients undergoing Percutaneous Coronary Interventions (PCI). Three patients who received a 0.25 mg/kg dose of Reopro® during the procedure had their platelet adhesion measured using the method of the present invention before Reopro® administration (image i of FIG. 10), 10 minutes after Reopro® administration (image ii of FIG. 10), and between 20 and 24 hours after Reopro® administration (image iii of FIG. 10).
Multiple fluorescent dots on the grid indicates presence of adhering platelets (i).

The subject of the next assay is platelets. In words: Platelet adhesion from whole blood on protein patterned surfaces (percentage of filled dots). Type of assay: cell-based, human. Conditions: 2 μm dots array, four normal donors. The procedure:
For the fabrication of protein patterns, specific platelet adhesive proteins or platelet antibodies were directly patterned on bare glass substrates by microcontact printing (FIG. 1a). After protein patterning the rest of the glass substrate was blocked with bovine serum albumin (BSA) to avoid non specific capture in non selected areas. Characterization of the protein pattern was carried out by immunofluorescence to assure good homogenous coverage of the protein pattern FIG. 14(ii) along all the patterned area. Samples were incubated with 1 mL of citrated or hirudinised whole blood for a maximum of 30 minutes.
The same blood sample exposed to a number of identical substrates gave small deviations; lower than 10%, in the platelet adhesion (FIG. 4b). We have quantified the platelet adhesion from whole blood on fibrinogen, vWF and anti-CD42b surfaces for four different normal donors. […]
The probability that a platelet is captured on a single spot depends on the probability that the platelet touches the protein spot, and on the binding affinity of the platelet for the protein matrix. […] We calculated the mean platelet adhesion on antibody, fibrinogen and vWF patterned surfaces on 2 μm and 6 μm dots arrays. […] A mean platelet adhesion of 45%, 10% and 15% were calculated for the antibody, the fibrinogen and the vWF surfaces, respectively. […]

“Also recorded” adds a separate entry of the source.

As to abciximab, in assay [1] (blood preincubated with abciximab (20 μg/mL), 2 and 6 μm dot arrays), the “platelet adhesion to the fibrinogen substrate after abciximab treatment” value is on record as “do not adhere to the fibrinogen substrate”. In addition, in assay [1] (in vitro, 1.5 μg/ml Reopro, CVD patients on aspirin and clopidogrel vs type 2 diabetes patients on aspirin), the “inhibition of platelet adhesion in CVD patients compared to the diabetic patients” value was “increased inhibition”. Besides, in assay [1] (in vitro, 1.5 μg/ml Reopro, normal donors, CVD patients, diabetic patients), the “Reopro's effects on platelet adhesion across population groups” value is listed as “effects appear greater in CVD patients than in normal or diabetic patients”. The “platelet adhesion after administration” value is reported as “increasing adhesion” with GP Ilb/IIIa receptor (20-24 hours after administration) and “low adhesion; also recorded: limited platelet adhesion” with GP Ilb/IIIa receptor (10 minutes after administration, listed as Reopro®, 0.25 mg/kg). Besides, the “platelet adhesion after administration (fluorescence images, one subject)” value in the assay with GP Ilb/IIIa receptor (21 h after administration) is recorded as “recovery of adhesiveness”.

On to von Willebrand factor [vWF], for which the mean platelet adhesion in the assay on platelets amounted to 15%.

Turning to fibrinogen, in the assay on platelets, the mean platelet adhesion is given as 10%.
